Assay results from publication doi:10.1101/2025.03.12.642038, “Structural, biophysical and biological analysis and characterisation of IRF4 DNA-binding domain mutations associated with multiple myeloma”.

What was measured:
Assay in all cases: SPR two-state kinetic; FP: PBS + 0.05% Tween20, 5 nM DNA, 1 h, room temperature; SPR: Biacore S200, SA chip, protein 0.1-4500 nM, running buffer not given in material; errors are SD
Conditions in all cases: protein: recombinant; tags: N-terminal His8-linker-His8-TEV, cleaved; label: 3' biotin; hairpin, TTTT loop
[1] = biological target: T1, IRF4 DBD D106Y (Homo sapiens, UniProt Q15306 20-132, D106Y)
T1 sequence: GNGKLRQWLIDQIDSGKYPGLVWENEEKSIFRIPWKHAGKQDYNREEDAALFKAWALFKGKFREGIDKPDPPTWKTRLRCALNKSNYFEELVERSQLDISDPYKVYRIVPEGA

[2] = biological target: T2, IRF4 DBD C99R (Homo sapiens, UniProt Q15306 20-132, C99R)
T2 sequence: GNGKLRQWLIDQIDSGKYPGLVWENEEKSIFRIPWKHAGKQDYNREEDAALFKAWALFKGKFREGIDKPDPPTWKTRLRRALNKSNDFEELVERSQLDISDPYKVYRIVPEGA

[3] = biological target: T3, IRF4 DBD K59R (Homo sapiens, UniProt Q15306 20-132, K59R)
T3 sequence: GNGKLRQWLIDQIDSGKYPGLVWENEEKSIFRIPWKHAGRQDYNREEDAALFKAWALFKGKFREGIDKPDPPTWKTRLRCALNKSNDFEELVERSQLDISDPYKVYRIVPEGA

[4] = biological target: T4, IRF4 DBD L70V (Homo sapiens, UniProt Q15306 20-132, L70V)
T4 sequence: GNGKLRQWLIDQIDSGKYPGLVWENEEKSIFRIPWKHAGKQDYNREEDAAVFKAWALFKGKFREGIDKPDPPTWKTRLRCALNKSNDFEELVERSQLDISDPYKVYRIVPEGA

[5] = biological target: T5, IRF4 DBD D117A (Homo sapiens, UniProt Q15306 20-132, D117A)
T5 sequence: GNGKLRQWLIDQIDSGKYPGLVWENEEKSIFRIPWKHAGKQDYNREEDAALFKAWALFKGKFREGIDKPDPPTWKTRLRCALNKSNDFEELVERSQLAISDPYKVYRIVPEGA

[6] = biological target: T6, IRF4 DBD K123R (Homo sapiens, UniProt Q15306 20-132, K123R)
T6 sequence: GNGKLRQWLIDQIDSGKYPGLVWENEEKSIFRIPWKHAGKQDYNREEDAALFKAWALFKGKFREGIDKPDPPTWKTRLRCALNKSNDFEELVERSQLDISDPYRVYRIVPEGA

CTTGGTTTCACTTCCTGCGTTTTCGCAGGAAGTGAAACCAAG (structured_DNA) [IRE hairpin (biotin)]
Kd [1]: 135 ± 121 nM | Kd [2]: 660 ± 317 nM | Kd [3]: 460 ± 429 nM | Kd [4]: 121 ± 111 nM | Kd [5]: 293 ± 213 nM | Kd [6]: 1110 ± 341 nM
